Patent US20170101466A1

B1: 14F11 IgG expressed in HEK293 cells (antibody, V domains shown)
VH: QVQLVQSGAEVKKPGSSVKVSCKASGGTFSSYAISWVRQAPGQGLEWMGRINPNSGGTNYAQKFQGRVTMTRDTSISTAYMELSRLRSDDTFVYYCAREGYDFLTGYTLGGMDVWGQGTTVTVSS
VL: QSVLTQPPSVSAAPGQKVTISCSGSSSNIGNNYVSWYQQLPGTAPKLLIYDNNKRPSGIPDRFSASKSGTSASLAISGLQAEDEADYYCQSYDSSLSGVVFGGGTKLTVLG
B2: human TACI (immunoglobulin fusion) (Fc fusion, part only; not given: immunoglobulin part, UniProt O14836 30-110, looked up, part only)
chain, part: AMRSCPEEQYWDPLLGTCMSCKTICNHQSQRTCAAFCRSLSCRKEQGKFYDHLLRDCISCASICGQHPKQCAYFCENKLRS

How the values were obtained:
[1] = molecular target: soluble human BLyS (human) (UniProt Q9Y275); test: cell-based or functional assay
[2] = molecular target: soluble mouse BLyS (mouse) (UniProt Q9WU72); test: cell-based or functional assay

Row | Binder | hBLyS B-cell proliferation (IC50) [1] | IC50 mBLyS stimulated, mouse splenic B-cell proliferation [2] | IC50 hBLyS stimulated, mouse splenic B-cell proliferation [1]
1 | B1 | 12 |  | 
2 | B2 |  | 7 ng/mL | 7 ng/mL
